T1: penicillin-binding protein 1B (PBP1B) (Escherichia coli, UniProt P02919 1-844)
T1 sequence (looked up): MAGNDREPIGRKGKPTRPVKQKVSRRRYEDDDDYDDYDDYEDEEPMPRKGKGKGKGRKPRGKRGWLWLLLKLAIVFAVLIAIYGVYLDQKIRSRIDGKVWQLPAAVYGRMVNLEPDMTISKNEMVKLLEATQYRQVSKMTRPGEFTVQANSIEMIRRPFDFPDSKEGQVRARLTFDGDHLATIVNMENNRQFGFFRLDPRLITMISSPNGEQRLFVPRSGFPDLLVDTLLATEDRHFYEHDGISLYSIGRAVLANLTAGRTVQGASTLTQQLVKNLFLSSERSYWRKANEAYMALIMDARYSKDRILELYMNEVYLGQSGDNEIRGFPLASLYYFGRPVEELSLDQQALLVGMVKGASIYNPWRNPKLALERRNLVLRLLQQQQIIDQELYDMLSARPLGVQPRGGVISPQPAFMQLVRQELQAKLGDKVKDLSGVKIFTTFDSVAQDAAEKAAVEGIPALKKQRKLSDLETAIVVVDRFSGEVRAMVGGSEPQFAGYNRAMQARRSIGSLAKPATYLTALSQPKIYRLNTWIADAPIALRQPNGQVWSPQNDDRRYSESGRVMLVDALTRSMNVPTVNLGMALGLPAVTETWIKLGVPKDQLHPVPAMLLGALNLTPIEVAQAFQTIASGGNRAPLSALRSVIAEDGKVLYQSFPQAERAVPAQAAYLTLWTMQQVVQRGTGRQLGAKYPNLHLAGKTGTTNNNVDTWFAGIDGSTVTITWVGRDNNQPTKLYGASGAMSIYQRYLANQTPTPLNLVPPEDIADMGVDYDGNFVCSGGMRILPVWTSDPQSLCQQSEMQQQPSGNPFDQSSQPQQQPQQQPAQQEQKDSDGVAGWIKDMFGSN

T2: penicillin-binding protein 1A (PBP1A) (Escherichia coli, UniProt P02918 1-850)
T2 sequence (looked up): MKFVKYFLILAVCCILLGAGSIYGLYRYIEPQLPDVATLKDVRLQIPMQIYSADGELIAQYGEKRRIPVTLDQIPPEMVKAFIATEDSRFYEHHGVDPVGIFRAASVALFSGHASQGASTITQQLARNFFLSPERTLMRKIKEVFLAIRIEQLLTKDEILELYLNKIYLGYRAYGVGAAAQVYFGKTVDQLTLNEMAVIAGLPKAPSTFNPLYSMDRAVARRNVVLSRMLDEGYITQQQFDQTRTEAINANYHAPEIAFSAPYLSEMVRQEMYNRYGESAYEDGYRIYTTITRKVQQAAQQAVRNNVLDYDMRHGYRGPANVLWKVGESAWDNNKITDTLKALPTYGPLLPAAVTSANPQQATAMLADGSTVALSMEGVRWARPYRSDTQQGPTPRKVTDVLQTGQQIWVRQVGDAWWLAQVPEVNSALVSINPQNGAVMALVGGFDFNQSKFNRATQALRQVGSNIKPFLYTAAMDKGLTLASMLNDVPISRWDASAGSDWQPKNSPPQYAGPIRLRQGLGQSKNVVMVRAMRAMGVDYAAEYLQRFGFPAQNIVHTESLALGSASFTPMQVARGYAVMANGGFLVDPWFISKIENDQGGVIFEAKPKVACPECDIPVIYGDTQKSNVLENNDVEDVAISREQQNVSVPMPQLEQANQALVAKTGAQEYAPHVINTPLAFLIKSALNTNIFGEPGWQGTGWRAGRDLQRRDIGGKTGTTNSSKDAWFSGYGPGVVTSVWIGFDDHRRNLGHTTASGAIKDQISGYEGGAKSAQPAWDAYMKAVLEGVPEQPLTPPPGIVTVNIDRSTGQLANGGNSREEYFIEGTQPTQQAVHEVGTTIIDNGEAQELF

B1: His-DamX (natural protein, Escherichia coli, UniProt P11557 1-428, looked up)
chain: MDEFKPEDELKPDPSDRRTGRSRQSSERSERTERGEPQINFDDIELDDTDDRRPTRAQKERNEEPEIEEEIDESEDETVDEERVERRPRKRKKAASKPASRQYMMMGVGILVLLLLIIGIGSALKAPSTTSSDQTASGEKSIDLAGNATDQANGVQPAPGTTSAENTQQDVSLPPISSTPTQGQTPVATDGQQRVEVQGDLNNALTQPQNQQQLNNVAVNSTLPTEPATVAPVRNGNASRDTAKTQTAERPSTTRPARQQAVIEPKKPQATVKTEPKPVAQTPKRTEPAAPVASTKAPAATSTPAPKETATTAPVQTASPAQTTATPAAGAKTAGNVGSLKSAPSSHYTLQLSSSSNYDNLNGWAKKENLKNYVVYETTRNGQPWYVLVSGVYASKEEAKKAVSTLPADVQAKNPWAKPLRQVQADLK
B2: His-DedD (natural protein, Escherichia coli, UniProt P09549 1-220, looked up)
chain: MASKFQNRLVGTIVLVALGVIVLPGLLDGQKKHYQDEFAAIPLVPKAGDRDEPDMMPAATQALPTQPPEGAAEEVRAGDAAAPSLDPATIAANNTEFEPEPAPVAPPKPKPVEPPKPKVEAPPAPKPEPKPVVEEKAAPTGKAYVVQLGALKNADKVNEIVGKLRGAGYRVYTSPSTPVQGKITRILVGPDASKDKLKGSLGELKQLSGLSGVVMGYTPN

Assays:
[1] = biological target: T1, penicillin-binding protein 1B (PBP1B); assay: cell-based or functional assay
[2] = biological target: T2, penicillin-binding protein 1A (PBP1A); assay: cell-based or functional assay

| Binder | GTase rate of PBP1B (consumption of fluorescent dansyl-lipid II), fold over PBP1B alone; 0.5 uM PBP1B, 2 uM purified DamX [1] [fold] | GTase rate of PBP1A (consumption of fluorescent dansyl-lipid II), fold over PBP1A alone; 0.5 uM PBP1A, 2 uM purified DedD [2] [fold] | GTase rate of PBP1B (consumption of fluorescent dansyl-lipid II), fold over PBP1B alone; 0.5 uM PBP1B, 2 uM purified DedD [1] [fold] |
| --- | --- | --- | --- |
| B1 | 2 | – | – |
| B2 | – | 1.8 | 2.6 |

Source: PMC7642682, “SPOR Proteins Are Required for Functionality of Class A Penicillin-Binding Proteins in Escherichia coli” (mBio, 2020)
